Biological target: plasma purified human complement protein C3 (human) (UniProt P01024)
Experiment: cell-based or functional assay

Chain of plasma purified human complement protein C3 (human) (P01024 23-667, chain 1 of 2): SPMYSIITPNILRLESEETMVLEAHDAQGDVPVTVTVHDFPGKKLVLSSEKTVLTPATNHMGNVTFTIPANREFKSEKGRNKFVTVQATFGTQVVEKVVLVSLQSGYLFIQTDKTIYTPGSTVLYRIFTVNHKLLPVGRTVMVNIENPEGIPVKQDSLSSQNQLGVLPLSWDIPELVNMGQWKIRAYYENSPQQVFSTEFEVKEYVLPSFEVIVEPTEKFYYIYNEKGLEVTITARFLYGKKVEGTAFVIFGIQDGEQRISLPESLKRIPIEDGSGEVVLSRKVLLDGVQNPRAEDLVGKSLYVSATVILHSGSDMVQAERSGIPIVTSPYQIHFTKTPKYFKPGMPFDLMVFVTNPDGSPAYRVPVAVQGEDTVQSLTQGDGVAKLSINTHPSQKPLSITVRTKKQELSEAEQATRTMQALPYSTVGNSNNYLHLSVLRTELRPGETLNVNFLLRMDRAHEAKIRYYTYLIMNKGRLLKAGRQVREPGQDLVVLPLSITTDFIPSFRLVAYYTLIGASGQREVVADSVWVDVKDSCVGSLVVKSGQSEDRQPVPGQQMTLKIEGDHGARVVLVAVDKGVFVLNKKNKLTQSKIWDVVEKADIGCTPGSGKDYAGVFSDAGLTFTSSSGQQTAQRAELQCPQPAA
Chain of plasma purified human complement protein C3 (human) (P01024 672-1663, chain 2 of 2): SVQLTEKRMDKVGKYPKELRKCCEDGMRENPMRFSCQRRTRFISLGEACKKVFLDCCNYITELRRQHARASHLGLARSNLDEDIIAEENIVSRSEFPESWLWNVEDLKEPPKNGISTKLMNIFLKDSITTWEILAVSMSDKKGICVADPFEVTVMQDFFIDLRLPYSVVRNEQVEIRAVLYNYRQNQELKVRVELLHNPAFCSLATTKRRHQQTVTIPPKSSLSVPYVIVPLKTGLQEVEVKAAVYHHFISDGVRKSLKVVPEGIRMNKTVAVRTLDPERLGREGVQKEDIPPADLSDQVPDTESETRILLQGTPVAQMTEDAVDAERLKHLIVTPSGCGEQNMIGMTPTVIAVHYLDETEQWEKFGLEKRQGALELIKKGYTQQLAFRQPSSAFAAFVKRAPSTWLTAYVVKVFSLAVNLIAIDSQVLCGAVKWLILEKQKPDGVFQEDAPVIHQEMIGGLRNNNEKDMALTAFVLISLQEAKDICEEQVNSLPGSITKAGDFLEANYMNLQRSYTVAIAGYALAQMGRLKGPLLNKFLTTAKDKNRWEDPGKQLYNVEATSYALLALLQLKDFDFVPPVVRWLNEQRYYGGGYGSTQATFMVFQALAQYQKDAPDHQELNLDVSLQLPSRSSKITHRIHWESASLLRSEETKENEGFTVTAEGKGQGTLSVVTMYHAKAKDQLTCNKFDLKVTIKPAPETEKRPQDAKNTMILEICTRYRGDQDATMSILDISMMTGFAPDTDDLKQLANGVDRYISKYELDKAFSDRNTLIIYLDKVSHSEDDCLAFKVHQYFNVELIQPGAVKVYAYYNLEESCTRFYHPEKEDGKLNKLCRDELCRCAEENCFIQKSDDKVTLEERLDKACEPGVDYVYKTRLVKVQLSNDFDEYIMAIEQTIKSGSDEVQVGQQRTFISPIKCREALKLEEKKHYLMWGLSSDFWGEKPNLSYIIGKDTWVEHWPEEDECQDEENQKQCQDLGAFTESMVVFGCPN

Binder	EC50 of hC3 cleavage [nM]
MTSP-1 D60bY/F97T/ins97aE/T98G/F99L/C122S/Q175L/Q192G (enzyme) VVGGTDADEGEWPWQVSLHALGQGHICGASLISPNWLVSAAHCYIDYRGFRYSDPTQWTAFLGLHDQSQRSAPGVQERRLKRIISHPFFNDTEGLDYDIALLELEKPAEYSSMVRPISLPDASHVFPAGKAIWVTGWGHTQYGGTGALILQKGEIRVINQTTCENLLPQLITPRMMCVGFLSGGVDSCGGDSGGPLSSVEADGRIFQAGVVSWGDGCAQRNKPGVYTRLPLFRDWIKENTGV	4.1
MTSP-1 I41T/D60bY/F97T/ins97aE/T98G/F99L/C122S/Q175L/Q192G (enzyme) VVGGTDADEGEWPWQVSLHALGQGHTCGASLISPNWLVSAAHCYIDYRGFRYSDPTQWTAFLGLHDQSQRSAPGVQERRLKRIISHPFFNDTEGLDYDIALLELEKPAEYSSMVRPISLPDASHVFPAGKAIWVTGWGHTQYGGTGALILQKGEIRVINQTTCENLLPQLITPRMMCVGFLSGGVDSCGGDSGGPLSSVEADGRIFQAGVVSWGDGCAQRNKPGVYTRLPLFRDWIKENTGV	3.88
MTSP-1 Q38E/I41S/D60bT/F60eR/F97T/ins97aE/T98G/F99L/C122S/Q175L/Q192V (enzyme) VVGGTDADEGEWPWQVSLHALGEGHSCGASLISPNWLVSAAHCYIDTRGRRYSDPTQWTAFLGLHDQSQRSAPGVQERRLKRIISHPFFNDTEGLDYDIALLELEKPAEYSSMVRPISLPDASHVFPAGKAIWVTGWGHTQYGGTGALILQKGEIRVINQTTCENLLPQLITPRMMCVGFLSGGVDSCVGDSGGPLSSVEADGRIFQAGVVSWGDGCAQRNKPGVYTRLPLFRDWIKENTGV	32.7
MTSP-1 Q38H/I41A/D60bK/F60eK/Y60gW/F97T/ins97aE/T98G/F99L/C122S/Q175L/Q192D (enzyme) VVGGTDADEGEWPWQVSLHALGHGHACGASLISPNWLVSAAHCYIDKRGKRWSDPTQWTAFLGLHDQSQRSAPGVQERRLKRIISHPFFNDTEGLDYDIALLELEKPAEYSSMVRPISLPDASHVFPAGKAIWVTGWGHTQYGGTGALILQKGEIRVINQTTCENLLPQLITPRMMCVGFLSGGVDSCDGDSGGPLSSVEADGRIFQAGVVSWGDGCAQRNKPGVYTRLPLFRDWIKENTGV	22.3
MTSP-1 Q38H/I41S/D60bA/F60eV/ins97aE/F97T/T98G/F99L/C122S/Q175L/Q192E/Q209L (enzyme) VVGGTDADEGEWPWQVSLHALGHGHSCGASLISPNWLVSAAHCYIDARGVRYSDPTQWTAFLGLHDQSQRSAPGVQERRLKRIISHPFFNDTEGLDYDIALLELEKPAEYSSMVRPISLPDASHVFPAGKAIWVTGWGHTQYGGTGALILQKGEIRVINQTTCENLLPQLITPRMMCVGFLSGGVDSCEGDSGGPLSSVEADGRIFLAGVVSWGDGCAQRNKPGVYTRLPLFRDWIKENTGV	16.9
MTSP-1 Q38H/I41A/D60bT/F60eR/F97T/ins97aE/T98G/F99L/C122S/Q175L/Q192V (enzyme) VVGGTDADEGEWPWQVSLHALGHGHACGASLISPNWLVSAAHCYIDTRGRRYSDPTQWTAFLGLHDQSQRSAPGVQERRLKRIISHPFFNDTEGLDYDIALLELEKPAEYSSMVRPISLPDASHVFPAGKAIWVTGWGHTQYGGTGALILQKGEIRVINQTTCENLLPQLITPRMMCVGFLSGGVDSCVGDSGGPLSSVEADGRIFQAGVVSWGDGCAQRNKPGVYTRLPLFRDWIKENTGV	6.54
MTSP-1 Q38H2I/I41S/F97T/ins97aE/T98G/F99L/C122S/Q175L/Q192V (enzyme) VVGGTDADEGEWPWQVSLHALGKGHSCGASLISPNWLVSAAHCYIDDRGFRYSDPTQWTAFLGLHDQSQRSAPGVQERRLKRIISHPFFNDTEGLDYDIALLELEKPAEYSSMVRPISLPDASHVFPAGKAIWVTGWGHTQYGGTGALILQKGEIRVINQTTCENLLPQLITPRMMCVGFLSGGVDSCVGDSGGPLSSVEADGRIFQAGVVSWGDGCAQRNKPGVYTRLPLFRDWIKENTGV	43
MTSP-1 Q38F/I41A/D60bT/F60eG/Y60gW/ins97aE/F97T/T98G/F99L/C122S/Q175L/Q192E (enzyme) VVGGTDADEGEWPWQVSLHALGFGHACGASLISPNWLVSAAHCYIDTRGGRWSDPTQWTAFLGLHDQSQRSAPGVQERRLKRIISHPFFNDTEGLDYDIALLELEKPAEYSSMVRPISLPDASHVFPAGKAIWVTGWGHTQYGGTGALILQKGEIRVINQTTCENLLPQLITPRMMCVGFLSGGVDSCEGDSGGPLSSVEADGRIFQAGVVSWGDGCAQRNKPGVYTRLPLFRDWIKENTGV	1.25
MTSP-1 Q38H/I41A/F60eH/Y60gW/ins97aE/F97T/T98G/F99L/C122S/Q175L/Q192A (enzyme) VVGGTDADEGEWPWQVSLHALGHGHACGASLISPNWLVSAAHCYIDDRGHRWSDPTQWTAFLGLHDQSQRSAPGVQERRLKRIISHPFFNDTEGLDYDIALLELEKPAEYSSMVRPISLPDASHVFPAGKAIWVTGWGHTQYGGTGALILQKGEIRVINQTTCENLLPQLITPRMMCVGFLSGGVDSCAGDSGGPLSSVEADGRIFQAGVVSWGDGCAQRNKPGVYTRLPLFRDWIKENTGV	3.09
MTSP-1 Q38H/I41A/D60bT/F60eK/Y60gW/F97T/ins97aE/T98G/F99L/C122S/Q175L/Q192A (enzyme) VVGGTDADEGEWPWQVSLHALGHGHACGASLISPNWLVSAAHCYIDTRGKRWSDPTQWTAFLGLHDQSQRSAPGVQERRLKRIISHPFFNDTEGLDYDIALLELEKPAEYSSMVRPISLPDASHVFPAGKAIWVTGWGHTQYGGTGALILQKGEIRVINQTTCENLLPQLITPRMMCVGFLSGGVDSCAGDSGGPLSSVEADGRIFQAGVVSWGDGCAQRNKPGVYTRLPLFRDWIKENTGV	2.71
MTSP-1 Q38H/I41A/D60bV/F60eA/Y60gW/F97T/ins97aE/T98G/F99L/C122S/Q175L/Q192V (enzyme) VVGGTDADEGEWPWQVSLHALGHGHACGASLISPNWLVSAAHCYIDVRGARWSDPTQWTAFLGLHDQSQRSAPGVQERRLKRIISHPFFNDTEGLDYDIALLELEKPAEYSSMVRPISLPDASHVFPAGKAIWVTGWGHTQYGGTGALILQKGEIRVINQTTCENLLPQLITPRMMCVGFLSGGVDSCVGDSGGPLSSVEADGRIFQAGVVSWGDGCAQRNKPGVYTRLPLFRDWIKENTGV	1.57
MTSP-1 Q38E/I41V/D60bF/F60eK/Y60gF/F97T/ins97aE/T98G/F99L/C122S/Q175L/Q192G (enzyme) VVGGTDADEGEWPWQVSLHALGEGHVCGASLISPNWLVSAAHCYIDFRGKRFSDPTQWTAFLGLHDQSQRSAPGVQERRLKRIISHPFFNDTEGLDYDIALLELEKPAEYSSMVRPISLPDASHVFPAGKAIWVTGWGHTQYGGTGALILQKGEIRVINQTTCENLLPQLITPRMMCVGFLSGGVDSCGGDSGGPLSSVEADGRIFQAGVVSWGDGCAQRNKPGVYTRLPLFRDWIKENTGV	14.2
MTSP-1 Q38H/H40P/I41A/F60eQ/Y60gW/F97T/ins97aE/T98G/F99L/C122S/Q175L/Q192D (enzyme) VVGGTDADEGEWPWQVSLHALGHGPACGASLISPNWLVSAAHCYIDDRGQRWSDPTQWTAFLGLHDQSQRSAPGVQERRLKRIISHPFFNDTEGLDYDIALLELEKPAEYSSMVRPISLPDASHVFPAGKAIWVTGWGHTQYGGTGALILQKGEIRVINQTTCENLLPQLITPRMMCVGFLSGGVDSCDGDSGGPLSSVEADGRIFQAGVVSWGDGCAQRNKPGVYTRLPLFRDWIKENTGV	5.04
MTSP-1 Q38R/I41V/D60bV/F60eV/Y60gF/ins97aE/F97T/T98G/F99L/C122S/Q175L/Q192G (enzyme) VVGGTDADEGEWPWQVSLHALGRGHVCGASLISPNWLVSAAHCYIDVRGVRFSDPTQWTAFLGLHDQSQRSAPGVQERRLKRIISHPFFNDTEGLDYDIALLELEKPAEYSSMVRPISLPDASHVFPAGKAIWVTGWGHTQYGGTGALILQKGEIRVINQTTCENLLPQLITPRMMCVGFLSGGVDSCGGDSGGPLSSVEADGRIFQAGVVSWGDGCAQRNKPGVYTRLPLFRDWIKENTGV	18.3
MTSP-1 Q38L/H40P/I41T/D60bV/F60eH/Y60gL/ins97aE/F97T/T98G/F99L/C122S/Q175L/Q192A (enzyme) VVGGTDADEGEWPWQVSLHALGLGPTCGASLISPNWLVSAAHCYIDVRGHRLSDPTQWTAFLGLHDQSQRSAPGVQERRLKRIISHPFFNDTEGLDYDIALLELEKPAEYSSMVRPISLPDASHVFPAGKAIWVTGWGHTQYGGTGALILQKGEIRVINQTTCENLLPQLITPRMMCVGFLSGGVDSCAGDSGGPLSSVEADGRIFQAGVVSWGDGCAQRNKPGVYTRLPLFRDWIKENTGV	6.47
MTSP-1 Q38H/I41A/D60bV/F60eH/ins97aE/F97T/T98G/F99L/C122S/Q175L/Q192D (enzyme) VVGGTDADEGEWPWQVSLHALGHGHACGASLISPNWLVSAAHCYIDVRGHRYSDPTQWTAFLGLHDQSQRSAPGVQERRLKRIISHPFFNDTEGLDYDIALLELEKPAEYSSMVRPISLPDASHVFPAGKAIWVTGWGHTQYGGTGALILQKGEIRVINQTTCENLLPQLITPRMMCVGFLSGGVDSCDGDSGGPLSSVEADGRIFQAGVVSWGDGCAQRNKPGVYTRLPLFRDWIKENTGV	5.31
MTSP-1 Q38H/I41S/D60bA/F60eV/ins97aE/F97T/T98G/F99L/C122S/Q175L/Q192V (enzyme) VVGGTDADEGEWPWQVSLHALGHGHSCGASLISPNWLVSAAHCYIDARGVRYSDPTQWTAFLGLHDQSQRSAPGVQERRLKRIISHPFFNDTEGLDYDIALLELEKPAEYSSMVRPISLPDASHVFPAGKAIWVTGWGHTQYGGTGALILQKGEIRVINQTTCENLLPQLITPRMMCVGFLSGGVDSCVGDSGGPLSSVEADGRIFQAGVVSWGDGCAQRNKPGVYTRLPLFRDWIKENTGV	10.9
MTSP-1 Q38R/I41T/D60bH/ins97aE/F97T/T98G/F99L/C122S/Q175L/Q192G (enzyme) VVGGTDADEGEWPWQVSLHALGRGHTCGASLISPNWLVSAAHCYIDHRGFRYSDPTQWTAFLGLHDQSQRSAPGVQERRLKRIISHPFFNDTEGLDYDIALLELEKPAEYSSMVRPISLPDASHVFPAGKAIWVTGWGHTQYGGTGALILQKGEIRVINQTTCENLLPQLITPRMMCVGFLSGGVDSCGGDSGGPLSSVEADGRIFQAGVVSWGDGCAQRNKPGVYTRLPLFRDWIKENTGV	26.2
MTSP-1 Q38H/I41S/D60bT/F60eR/ins97aE/F97T/T98G/F99L/C122S/Q175L/Q192E (enzyme) VVGGTDADEGEWPWQVSLHALGHGHSCGASLISPNWLVSAAHCYIDTRGRRYSDPTQWTAFLGLHDQSQRSAPGVQERRLKRIISHPFFNDTEGLDYDIALLELEKPAEYSSMVRPISLPDASHVFPAGKAIWVTGWGHTQYGGTGALILQKGEIRVINQTTCENLLPQLITPRMMCVGFLSGGVDSCEGDSGGPLSSVEADGRIFQAGVVSWGDGCAQRNKPGVYTRLPLFRDWIKENTGV	15.4
MTSP-1 Q38K/I41T/ins97aE/F97T/T98G/F99L/C122S/Q175L/Q192A (enzyme) VVGGTDADEGEWPWQVSLHALGKGHTCGASLISPNWLVSAAHCYIDDRGFRYSDPTQWTAFLGLHDQSQRSAPGVQERRLKRIISHPFFNDTEGLDYDIALLELEKPAEYSSMVRPISLPDASHVFPAGKAIWVTGWGHTQYGGTGALILQKGEIRVINQTTCENLLPQLITPRMMCVGFLSGGVDSCAGDSGGPLSSVEADGRIFQAGVVSWGDGCAQRNKPGVYTRLPLFRDWIKENTGV	37.8
MTSP-1 Q38H/I41A/D60bT/F60eK/ins97aE/F97T/T98G/F99L/C122S/Q175L/Q192E (enzyme) VVGGTDADEGEWPWQVSLHALGHGHACGASLISPNWLVSAAHCYIDTRGKRYSDPTQWTAFLGLHDQSQRSAPGVQERRLKRIISHPFFNDTEGLDYDIALLELEKPAEYSSMVRPISLPDASHVFPAGKAIWVTGWGHTQYGGTGALILQKGEIRVINQTTCENLLPQLITPRMMCVGFLSGGVDSCEGDSGGPLSSVEADGRIFQAGVVSWGDGCAQRNKPGVYTRLPLFRDWIKENTGV	14.6

Source: patent US20240018502A1
